Laboratory results reported in publication PMC9482650, “Quantitative fragmentomics allow affinity mapping of interactomes” (Nature Communications, 2022).
Each block holds one binder with its values, some of them ahead of it.

What was measured:
Experiment in all cases: holdup assay
Set-up in all cases: key: below the threshold = too weak to quantify, mostly under pKd 3.1 to 4
[1] = biological target: T1, APBA1_2, Q02410
T1 sequence (Q02410 742-832, limits assumed, looked up): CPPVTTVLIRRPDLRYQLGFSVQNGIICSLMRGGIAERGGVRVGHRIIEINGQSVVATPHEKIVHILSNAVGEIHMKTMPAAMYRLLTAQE

[2] = biological target: NHERF4_1, Q86UT5-2
Chain of NHERF4_1, Q86UT5-2 (Q86UT5 other isoform, or with tags, fused parts or gaps): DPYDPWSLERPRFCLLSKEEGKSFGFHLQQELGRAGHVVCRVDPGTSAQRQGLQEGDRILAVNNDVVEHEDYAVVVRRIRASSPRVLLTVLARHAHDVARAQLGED

[3] = biological target: T2, HTRA4, P83105
T2 sequence (P83105 378-476, limits assumed, looked up): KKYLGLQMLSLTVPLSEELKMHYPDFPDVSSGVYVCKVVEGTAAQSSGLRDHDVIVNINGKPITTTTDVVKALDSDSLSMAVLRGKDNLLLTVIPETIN

[4] = biological target: T3, TIAM2, Q8IVF5
T3 sequence (Q8IVF5 885-986, limits assumed, looked up): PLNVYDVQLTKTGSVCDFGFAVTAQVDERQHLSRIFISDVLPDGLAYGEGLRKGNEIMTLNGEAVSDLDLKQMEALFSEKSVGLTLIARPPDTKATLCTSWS

[5] = biological target: T4, GRIP1_4, Q9Y3R0
T4 sequence (Q9Y3R0 467-571, limits assumed, looked up): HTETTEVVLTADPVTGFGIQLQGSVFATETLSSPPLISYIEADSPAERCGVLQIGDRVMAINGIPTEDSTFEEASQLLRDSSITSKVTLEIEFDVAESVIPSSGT

[6] = biological target: T5, GRIP1_5, Q9Y3R0
T5 sequence (Q9Y3R0 568-668, limits assumed, looked up): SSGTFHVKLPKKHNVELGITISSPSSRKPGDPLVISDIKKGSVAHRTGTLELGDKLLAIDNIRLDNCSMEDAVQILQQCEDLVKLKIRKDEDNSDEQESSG

[7] = biological target: HTRA1, Q92743
Chain of HTRA1, Q92743 (Q92743 360-477): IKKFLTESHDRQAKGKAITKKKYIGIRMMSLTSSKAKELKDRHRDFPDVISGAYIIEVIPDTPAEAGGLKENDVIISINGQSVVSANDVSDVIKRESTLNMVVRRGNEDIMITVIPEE

[8] = biological target: DLG4_3, P78352
Chain of DLG4_3, P78352 (P78352 306-403): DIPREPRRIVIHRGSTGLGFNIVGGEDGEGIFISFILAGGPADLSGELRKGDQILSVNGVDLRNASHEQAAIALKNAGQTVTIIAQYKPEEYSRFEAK

[9] = biological target: T6, HTRA3, P83110
T6 sequence (P83110 354-453, limits assumed, looked up): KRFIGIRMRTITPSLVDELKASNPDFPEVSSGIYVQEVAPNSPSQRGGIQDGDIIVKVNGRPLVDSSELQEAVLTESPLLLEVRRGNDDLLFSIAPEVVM

[10] = biological target: SCRIB_3, Q14160
Chain of SCRIB_3, Q14160 (Q14160 999-1103): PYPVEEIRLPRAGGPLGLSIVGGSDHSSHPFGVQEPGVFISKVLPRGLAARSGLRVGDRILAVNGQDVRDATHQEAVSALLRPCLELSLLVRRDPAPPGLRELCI

[11] = biological target: T7, PDZRN3_1, Q9UPQ7
T7 sequence (Q9UPQ7 244-349, limits assumed, looked up): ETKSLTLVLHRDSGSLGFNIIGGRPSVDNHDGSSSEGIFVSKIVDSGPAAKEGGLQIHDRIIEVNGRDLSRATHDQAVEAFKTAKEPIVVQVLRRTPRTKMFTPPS

[12] = biological target: NOS1, P29475
Chain of NOS1, P29475 (P29475 9-101): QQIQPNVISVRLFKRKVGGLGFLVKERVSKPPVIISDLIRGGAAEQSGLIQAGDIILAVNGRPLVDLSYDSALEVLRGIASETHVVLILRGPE

[13] = biological target: Inadl_4, Q8NI35
Chain of Inadl_4, Q8NI35 (Q8NI35 547-651): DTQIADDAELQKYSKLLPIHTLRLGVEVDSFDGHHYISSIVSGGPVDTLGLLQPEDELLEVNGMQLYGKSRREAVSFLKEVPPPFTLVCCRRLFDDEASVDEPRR

[14] = biological target: Inadl_1, Q8NI35
Chain of Inadl_1, Q8NI35 (Q8NI35 113-229): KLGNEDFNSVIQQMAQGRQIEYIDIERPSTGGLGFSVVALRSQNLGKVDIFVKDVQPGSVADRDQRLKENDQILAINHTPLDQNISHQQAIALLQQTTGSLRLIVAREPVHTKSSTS

[15] = biological target: T8, DFNB31_2, Q9P202
T8 sequence (Q9P202 274-371, limits assumed, looked up): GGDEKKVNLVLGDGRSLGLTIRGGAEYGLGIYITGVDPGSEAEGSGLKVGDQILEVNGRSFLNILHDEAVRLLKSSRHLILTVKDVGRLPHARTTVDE

[16] = biological target: MAGI2_4, Q86UL8
Chain of MAGI2_4, Q86UL8 (Q86UL8 772-865): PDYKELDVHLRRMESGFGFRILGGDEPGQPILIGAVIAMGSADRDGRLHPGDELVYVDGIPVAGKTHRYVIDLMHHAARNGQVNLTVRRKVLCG

[17] = biological target: T9, TJP3_3, O95049
T9 sequence (O95049 375-456, limits assumed, looked up): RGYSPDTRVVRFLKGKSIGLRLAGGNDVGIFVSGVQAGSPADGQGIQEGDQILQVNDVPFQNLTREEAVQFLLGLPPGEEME

[18] = biological target: T10, MPDZ_10, O75970
T10 sequence (O75970 1624-1722, limits assumed, looked up): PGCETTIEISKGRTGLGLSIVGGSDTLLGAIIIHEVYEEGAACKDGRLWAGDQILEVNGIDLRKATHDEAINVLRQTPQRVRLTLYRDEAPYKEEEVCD

[19] = biological target: Inadl_2, Q8NI35
Chain of Inadl_2, Q8NI35 (Q8NI35 238-335): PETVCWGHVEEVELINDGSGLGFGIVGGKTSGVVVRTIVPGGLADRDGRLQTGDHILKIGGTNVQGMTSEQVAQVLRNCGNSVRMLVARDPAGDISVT

[20] = biological target: TJP2_1, Q9UDY2
Chain of TJP2_1, Q9UDY2 (Q9UDY2 24-128): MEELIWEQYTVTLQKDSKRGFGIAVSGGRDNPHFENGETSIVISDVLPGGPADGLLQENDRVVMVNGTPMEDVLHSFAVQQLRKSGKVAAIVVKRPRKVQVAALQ

[21] = biological target: GIPC2, Q8TF65
Chain of GIPC2, Q8TF65 (Q8TF65 112-203): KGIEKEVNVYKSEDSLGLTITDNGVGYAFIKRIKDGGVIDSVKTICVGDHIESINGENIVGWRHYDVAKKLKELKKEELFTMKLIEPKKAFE

[22] = biological target: Inadl_3, Q8NI35
Chain of Inadl_3, Q8NI35 (Q8NI35 359-469): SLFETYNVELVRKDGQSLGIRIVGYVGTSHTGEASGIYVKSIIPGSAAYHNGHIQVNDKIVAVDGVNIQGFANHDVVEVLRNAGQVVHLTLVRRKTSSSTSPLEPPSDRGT

[23] = biological target: T11, FRMPD1, Q5SYB0
T11 sequence (Q5SYB0 52-145, limits assumed, looked up): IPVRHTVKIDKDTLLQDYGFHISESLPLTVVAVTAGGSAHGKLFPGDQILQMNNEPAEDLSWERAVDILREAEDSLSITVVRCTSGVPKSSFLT

[24] = biological target: T12, APBA1_1, Q02410
T12 sequence (Q02410 651-752, limits assumed, looked up): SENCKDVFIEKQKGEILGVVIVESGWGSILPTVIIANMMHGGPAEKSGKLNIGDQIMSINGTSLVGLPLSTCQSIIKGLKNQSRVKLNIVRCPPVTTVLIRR

[25] = biological target: SCRIB_2, Q14160
Chain of SCRIB_2, Q14160 (Q14160 857-960): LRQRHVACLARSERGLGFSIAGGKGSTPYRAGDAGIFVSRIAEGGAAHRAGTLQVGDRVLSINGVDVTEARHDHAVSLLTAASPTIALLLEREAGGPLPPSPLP

[26] = biological target: GOPC, Q9HD26
[27] = plain residues with an end cap or a label only (N-terminal biotin on a linker: ttds)
[28] = plain residues with an end cap or a label only (N-terminal biotin on a linker: ahx)

pKd [1, 27]: below the threshold
pKd [2, 27]: below the threshold
pKd [3, 27]: below the threshold
pKd [4, 27]: below the threshold
pKd [5, 27]: below the threshold
pKd [6, 27]: below the threshold
pKd [7, 27]: below the threshold
pKd [8, 27]: below the threshold
pKd [9, 27]: below the threshold
pKd [10, 27]: below the threshold
pKd [11, 27]: 4.01
pKd [12, 27]: 3.53
pKd [13, 27]: below the threshold
pKd [14, 27]: below the threshold
pKd [15, 27]: below the threshold
pKd [16, 27]: below the threshold
pKd [17, 27]: below the threshold
pKd [18, 27]: below the threshold
pKd [19, 27]: below the threshold
pKd [20, 27]: below the threshold
pKd [21, 27]: below the threshold
pKd [22, 27]: below the threshold
pKd [23, 27]: below the threshold
pKd [24, 27]: below the threshold
pKd [25, 27]: below the threshold
Binder: TEEEVQDTRL [CFTR, P13569]

pKd [1, 28]: 3.65
pKd [2, 28]: below the threshold
pKd [3, 28]: below the threshold
pKd [4, 28]: below the threshold
pKd [5, 28]: below the threshold
pKd [6, 28]: below the threshold
pKd [7, 28]: 4.18
pKd [8, 28]: below the threshold
pKd [9, 28]: below the threshold
pKd [10, 28]: below the threshold
pKd [11, 28]: below the threshold
pKd [12, 28]: 3.67
pKd [13, 28]: below the threshold
pKd [14, 28]: below the threshold
pKd [15, 28]: below the threshold
pKd [16, 28]: below the threshold
pKd [17, 28]: below the threshold
pKd [18, 28]: 3.82
pKd [19, 28]: below the threshold
pKd [20, 28]: below the threshold
pKd [21, 28]: 3.81
pKd [22, 28]: below the threshold
pKd [23, 28]: below the threshold
pKd [26, 28]: below the threshold
pKd [24, 28]: below the threshold
pKd [25, 28]: below the threshold
Binder: EDEDEQVSAV [RAPGEF2, Q9Y4G8]

pKd [2, 28]: below the threshold
pKd [3, 28]: below the threshold
pKd [5, 28]: below the threshold
pKd [6, 28]: below the threshold
pKd [8, 28]: below the threshold
pKd [9, 28]: below the threshold
pKd [10, 28]: below the threshold
pKd [11, 28]: below the threshold
pKd [13, 28]: below the threshold
pKd [14, 28]: below the threshold
pKd [15, 28]: below the threshold
pKd [16, 28]: below the threshold
pKd [17, 28]: below the threshold
pKd [18, 28]: 4.07
pKd [19, 28]: below the threshold
pKd [20, 28]: 4.09
pKd [22, 28]: below the threshold
pKd [23, 28]: below the threshold
pKd [26, 28]: below the threshold
pKd [24, 28]: below the threshold
pKd [25, 28]: below the threshold
Binder: LCKSHAFSHV [PDLIM7, Q9NR12;Q9NR12-1]

pKd [1, 27]: below the threshold
pKd [2, 27]: below the threshold
pKd [3, 27]: below the threshold
pKd [4, 27]: below the threshold
pKd [5, 27]: below the threshold
pKd [6, 27]: below the threshold
pKd [7, 27]: below the threshold
pKd [8, 27]: below the threshold
pKd [9, 27]: below the threshold
pKd [10, 27]: 5.23
pKd [11, 27]: 4.38
pKd [12, 27]: below the threshold
pKd [13, 27]: below the threshold
pKd [14, 27]: below the threshold
pKd [15, 27]: below the threshold
pKd [16, 27]: below the threshold
pKd [17, 27]: below the threshold
pKd [18, 27]: below the threshold
pKd [19, 27]: below the threshold
pKd [20, 27]: below the threshold
pKd [21, 27]: below the threshold
pKd [22, 27]: below the threshold
pKd [23, 27]: below the threshold
pKd [26, 27]: below the threshold
pKd [24, 27]: below the threshold
pKd [25, 27]: 4.35
Binder: CLDTSRETDL [KCNA5, P22460]

pKd [1, 27]: 4.02
pKd [2, 27]: 3.51
pKd [3, 27]: 3.62
pKd [4, 27]: below the threshold
pKd [5, 27]: below the threshold
pKd [6, 27]: 3.72
pKd [7, 27]: 4.27
pKd [8, 27]: 3.56
pKd [9, 27]: below the threshold
pKd [10, 27]: 3.94
pKd [11, 27]: 4.23
pKd [12, 27]: below the threshold
pKd [13, 27]: below the threshold
pKd [14, 27]: 3.77
pKd [15, 27]: 3.62
pKd [16, 27]: 3.64
pKd [17, 27]: below the threshold
pKd [18, 27]: 3.98
pKd [19, 27]: below the threshold
pKd [20, 27]: below the threshold
pKd [22, 27]: 3.45
pKd [23, 27]: below the threshold
pKd [26, 27]: 4.24
pKd [24, 27]: below the threshold
pKd [25, 27]: 3.73
Binder: DEDQHTQITKV [PTEN, P60484]
